{
  "source": "IntAct's records for PubMed 20133654",
  "parents": {"B1": {"name": "Obscurin-like protein 1 (Homo sapiens), O75147 (parent)", "chain": "MKASSGDQGSPPCFLRFPRPVRVVSGAEAELKCVVLGEPPPVVVWEKGGQQLAASERLSFPADGAEHGLLLTAALPTDAGVYVCRARNAAGEAYAAAAVTVLEPPASDPELQPAERPLPSPGSGEGAPVFLTGPRSQWVLRGAEVVLTCRAGGLPEPTLYWEKDGMALDEVWDSSHFALQPGRAEDGPGASLALRILAARLPDSGVYVCHARNAHGHAQAGALLQVHQPPESPPADPDEAPAPVVEPLKCAPKTFWVNEGKHAKFRCYVMGKPEPEIEWHWEGRPLLPDRRRLMYRDRDGGFVLKVLYCQAKDRGLYVCAARNSAGQTLSAVQLHVKEPRLRFTRPLQDVEGREHGIAVLECKVPNSRIPTAWFREDQRLLPCRKYEQIEEGTVRRLIIHRLKADDDGIYLCEMRGRVRTVANVTVKGPILKRLPRKLDVLEGENAVLLVETLEAGVEGRWSRDGEELPVICQSSSGHMHALVLPGVTREDAGEVTFSLGNSRTTTLLRVKCVKHSPPGPPILAEMFKGHKNTVLLTWKPPEPAPETPFIYRLERQEVGSEDWIQCFSIEKAGAVEVPGDCVPSEGDYRFRICTVSGHGRSPHVVFHGSAHLVPTARLVAGLEDVQVYDGEDAVFSLDLSTIIQGTWFLNGEELKSNEPEGQVEPGALRYRIEQKGLQHRLILHAVKHQDSGALVGFSCPGVQDSAALTIQESPVHILSPQDRVSLTFTTSERVVLTCELSRVDFPATWYKDGQKVEESELLVVKMDGRKHRLILPEAKVQDSGEFECRTEGVSAFFGVTVQDPPVHIVDPREHVFVHAITSECVMLACEVDREDAPVRWYKDGQEVEESDFVVLENEGPHRRLVLPATQPSDGGEFQCVAGDECAYFTVTITDVSSWIVYPSGKVYVAAVRLERVVLTCELCRPWAEVRWTKDGEEVVESPALLLQKEDTVRRLVLPAVQLEDSGEYLCEIDDESASFTVTVTEPPVRIIYPRDEVTLIAVTLECVVLMCELSREDAPVRWYKDGLEVEESEALVLERDGPRCRLVLPAAQPEDGGEFVCDAGDDSAFFTVTVTAPPERIVHPAARSLDLHFGAPGRVELRCEVAPAGSQVRWYKDGLEVEASDALQLGAEGPTRTLTLPHAQPEDAGEYVCETRHEAITFNVILAEPPVQFLALETTPSPLCVAPGEPVVLSCELSRAGAPVVWSHNGRPVQEGEGLELHAEGPRRVLCIQAAGPAHAGLYTCQSGAAPGAPSLSFTVQVAEPPVRVVAPEAAQTRVRSTPGGDLELVVHLSGPGGPVRWYKDGERLASQGRVQLEQAGARQVLRVQGARSGDAGEYLCDAPQDSRIFLVSVEEPLLVKLVSELTPLTVHEGDDATFRCEVSPPDADVTWLRNGAVVTPGPQVEMAQNGSSRILTLRGCQLGDAGTVTLRAGSTATSARLHVRETELLFLRRLQDVRAEEGQDVCLEVETGRVGAAGAVRWVRGGQPLPHDSRLSMAQDGHIHRLFIHGVILADQGTYGCESHHDRTLARLSVRPRQLRVLRPLEDVTISEGGSATFQLELSQEGVTGEWARGGVQLYPGPKCHIHSDGHRHRLVLNGLGLADSGCVSFTADSLRCAARLIVREVPVTIVRGPHDLEVTEGDTATFECELSQALADVTWEKDGNALTPSPRLRLQALGTRRLLQLRRCGPSDAGTYSCAVGTARAGPVRLTVRERTVAVLSELRSVSAREGDGATFECTVSEVETTGRWELGGRPLRPGARVRIRQEGKKHILVLSELRAEDAGEVRFQAGPAQSLALLEVEALPLQMCRHPPREKTVLVGRRAVLEVTVSRSGGHVCWLREGAELCPGDKYEMRSHGPTHSLVIHDVRPEDQGTYCCQAGQDSTHTRLLVEGN"}},
  "data": [
    {"variants_of": "B1", "settings": "with titin_human TTN", "values": [
      {"variant": "F17R", "effect of a mutation on the interaction": "decreasing interaction"}
    ]}
  ]
}
